Measurements: publication PMC10407929, “Determining DNA–Protein Binding Affinities and Specificities from Crude Lysates Using a Combined SILAC/TMT Labeling Strategy”
Where “and” joins values, the source holds several entries; their conditions need not be identical. Identical values can stand only once.

Experiments:
Experiment in all cases: pulldown; 150 mM NaCl, 50 mM Tris pH 8.0, 0.25% NP-40, 1 mM DTT; 4 C, 2 h; 100 ug nuclear extract
Details in all cases: protein: extract; label: 5' biotin (strand 1)
KLF12 = KLF12 (Homo sapiens, UniProt Q9Y4X4)
MAZ [1] = target: T1, MAZ (Homo sapiens, UniProt P56270)
T1 sequence: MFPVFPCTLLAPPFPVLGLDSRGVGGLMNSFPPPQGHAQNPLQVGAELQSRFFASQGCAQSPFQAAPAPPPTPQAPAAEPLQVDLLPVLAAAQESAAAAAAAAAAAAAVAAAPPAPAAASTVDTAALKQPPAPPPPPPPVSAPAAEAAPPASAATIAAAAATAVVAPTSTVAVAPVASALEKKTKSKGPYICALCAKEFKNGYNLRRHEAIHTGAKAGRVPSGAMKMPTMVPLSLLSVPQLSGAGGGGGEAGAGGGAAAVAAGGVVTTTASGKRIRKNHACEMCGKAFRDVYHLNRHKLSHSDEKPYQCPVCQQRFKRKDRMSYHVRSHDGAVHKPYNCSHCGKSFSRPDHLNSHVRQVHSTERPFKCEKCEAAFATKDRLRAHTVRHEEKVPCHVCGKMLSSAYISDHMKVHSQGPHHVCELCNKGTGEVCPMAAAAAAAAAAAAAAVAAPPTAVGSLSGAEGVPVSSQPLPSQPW

BEND3 = target: T2, BEND3 (Homo sapiens, UniProt Q5T5X7)
T2 sequence: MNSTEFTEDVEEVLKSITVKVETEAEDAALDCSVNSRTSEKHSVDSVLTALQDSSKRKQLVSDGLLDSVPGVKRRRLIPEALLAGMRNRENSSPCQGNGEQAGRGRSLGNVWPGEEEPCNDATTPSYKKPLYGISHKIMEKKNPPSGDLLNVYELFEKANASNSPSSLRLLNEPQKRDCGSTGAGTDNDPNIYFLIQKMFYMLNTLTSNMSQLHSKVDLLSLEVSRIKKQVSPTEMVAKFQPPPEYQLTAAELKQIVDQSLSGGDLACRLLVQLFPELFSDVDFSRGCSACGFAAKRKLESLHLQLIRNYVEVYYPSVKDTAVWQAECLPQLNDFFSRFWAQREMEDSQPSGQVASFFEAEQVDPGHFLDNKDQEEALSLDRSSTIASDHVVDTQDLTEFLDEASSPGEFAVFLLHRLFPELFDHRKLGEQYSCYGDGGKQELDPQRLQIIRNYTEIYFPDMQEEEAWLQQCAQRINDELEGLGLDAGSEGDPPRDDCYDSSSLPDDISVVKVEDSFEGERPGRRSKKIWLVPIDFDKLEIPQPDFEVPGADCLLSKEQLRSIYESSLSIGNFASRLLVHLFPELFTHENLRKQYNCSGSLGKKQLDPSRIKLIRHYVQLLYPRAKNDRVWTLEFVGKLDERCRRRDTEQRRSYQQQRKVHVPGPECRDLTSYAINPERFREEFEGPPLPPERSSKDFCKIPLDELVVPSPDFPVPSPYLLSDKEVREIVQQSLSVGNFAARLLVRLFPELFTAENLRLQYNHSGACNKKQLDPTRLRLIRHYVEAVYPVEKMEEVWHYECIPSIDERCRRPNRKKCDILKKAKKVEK

KLF5 = KLF5 (Homo sapiens, UniProt Q13887)
VEZF1 = target: T3, VEZF1 (Homo sapiens, UniProt Q14119)
T3 sequence: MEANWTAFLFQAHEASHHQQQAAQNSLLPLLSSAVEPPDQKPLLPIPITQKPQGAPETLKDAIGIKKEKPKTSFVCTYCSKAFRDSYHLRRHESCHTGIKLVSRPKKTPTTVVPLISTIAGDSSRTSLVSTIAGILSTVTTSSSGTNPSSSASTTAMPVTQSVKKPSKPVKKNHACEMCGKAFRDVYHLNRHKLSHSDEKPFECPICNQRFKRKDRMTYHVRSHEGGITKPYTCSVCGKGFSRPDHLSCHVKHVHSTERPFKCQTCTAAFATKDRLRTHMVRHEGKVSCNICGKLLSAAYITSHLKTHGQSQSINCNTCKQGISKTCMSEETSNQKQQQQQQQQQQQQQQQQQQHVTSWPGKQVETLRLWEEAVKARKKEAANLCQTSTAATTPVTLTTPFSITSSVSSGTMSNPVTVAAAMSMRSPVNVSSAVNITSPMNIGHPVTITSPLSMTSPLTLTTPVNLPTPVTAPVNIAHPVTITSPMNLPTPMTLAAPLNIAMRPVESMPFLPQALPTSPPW

SP1 = SP1 (Homo sapiens, UniProt P08047)
KLF1 = KLF1 (Homo sapiens, UniProt Q13351)
BANP = target: T4, BANP (Homo sapiens, UniProt Q8N9N5)
T4 sequence: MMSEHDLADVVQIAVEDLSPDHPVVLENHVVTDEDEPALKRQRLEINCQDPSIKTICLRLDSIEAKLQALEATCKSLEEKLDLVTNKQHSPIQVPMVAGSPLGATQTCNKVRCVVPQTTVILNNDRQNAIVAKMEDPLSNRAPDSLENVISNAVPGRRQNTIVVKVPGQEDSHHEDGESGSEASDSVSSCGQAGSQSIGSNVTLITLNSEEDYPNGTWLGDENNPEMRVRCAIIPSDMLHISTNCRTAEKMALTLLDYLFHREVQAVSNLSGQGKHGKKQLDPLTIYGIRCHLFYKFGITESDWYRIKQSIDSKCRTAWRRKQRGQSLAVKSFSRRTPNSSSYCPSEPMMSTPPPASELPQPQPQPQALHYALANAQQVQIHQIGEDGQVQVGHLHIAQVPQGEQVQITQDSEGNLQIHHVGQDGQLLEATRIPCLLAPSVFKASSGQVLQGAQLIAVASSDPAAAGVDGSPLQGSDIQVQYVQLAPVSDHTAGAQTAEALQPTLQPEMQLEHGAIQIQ

HOXB9 = HOXB9 (Homo sapiens, UniProt P17482)
MAZ [2] = target: T5, MAZ (Homo sapiens, UniProt P56270); remark: listed apart in the source
T5 sequence: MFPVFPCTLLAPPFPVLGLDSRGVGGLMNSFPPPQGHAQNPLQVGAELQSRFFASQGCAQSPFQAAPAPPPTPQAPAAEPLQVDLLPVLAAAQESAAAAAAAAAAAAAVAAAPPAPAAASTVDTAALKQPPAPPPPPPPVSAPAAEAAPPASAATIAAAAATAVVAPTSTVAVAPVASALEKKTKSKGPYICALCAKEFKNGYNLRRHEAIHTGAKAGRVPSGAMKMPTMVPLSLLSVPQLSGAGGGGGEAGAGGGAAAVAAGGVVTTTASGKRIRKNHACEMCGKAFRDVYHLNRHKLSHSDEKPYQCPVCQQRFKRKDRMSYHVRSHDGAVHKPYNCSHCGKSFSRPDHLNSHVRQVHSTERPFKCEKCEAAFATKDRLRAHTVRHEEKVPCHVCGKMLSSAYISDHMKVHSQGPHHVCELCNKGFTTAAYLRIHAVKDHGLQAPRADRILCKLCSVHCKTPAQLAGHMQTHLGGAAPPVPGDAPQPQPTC

SP3 = SP3 (Homo sapiens, UniProt Q02447)
TFAP2A = TFAP2A (Homo sapiens, UniProt P05549)
ZNF148 = target: T6, ZNF148 (Homo sapiens, UniProt Q9UQR1)
T6 sequence: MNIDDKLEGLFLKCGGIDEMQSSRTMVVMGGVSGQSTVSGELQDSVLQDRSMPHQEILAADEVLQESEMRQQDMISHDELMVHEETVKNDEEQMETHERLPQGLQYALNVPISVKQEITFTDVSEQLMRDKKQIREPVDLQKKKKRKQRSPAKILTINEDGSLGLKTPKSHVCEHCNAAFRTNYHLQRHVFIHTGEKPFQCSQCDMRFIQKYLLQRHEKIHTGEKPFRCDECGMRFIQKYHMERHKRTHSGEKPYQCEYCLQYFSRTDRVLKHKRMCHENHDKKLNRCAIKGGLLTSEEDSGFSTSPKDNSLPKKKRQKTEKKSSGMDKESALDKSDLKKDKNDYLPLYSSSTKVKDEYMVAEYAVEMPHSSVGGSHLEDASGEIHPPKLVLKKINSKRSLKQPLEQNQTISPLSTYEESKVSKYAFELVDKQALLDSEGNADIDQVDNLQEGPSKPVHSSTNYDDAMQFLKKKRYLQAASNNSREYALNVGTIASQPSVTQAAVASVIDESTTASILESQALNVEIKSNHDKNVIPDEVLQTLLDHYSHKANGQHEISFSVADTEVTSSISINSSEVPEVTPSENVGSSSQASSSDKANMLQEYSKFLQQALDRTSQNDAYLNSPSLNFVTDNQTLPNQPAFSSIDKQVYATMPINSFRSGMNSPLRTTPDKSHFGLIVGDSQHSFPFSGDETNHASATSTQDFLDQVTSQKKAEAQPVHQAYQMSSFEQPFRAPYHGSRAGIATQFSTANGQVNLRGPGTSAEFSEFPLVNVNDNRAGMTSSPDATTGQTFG

Sequence of SP1 (P08047 whole entry): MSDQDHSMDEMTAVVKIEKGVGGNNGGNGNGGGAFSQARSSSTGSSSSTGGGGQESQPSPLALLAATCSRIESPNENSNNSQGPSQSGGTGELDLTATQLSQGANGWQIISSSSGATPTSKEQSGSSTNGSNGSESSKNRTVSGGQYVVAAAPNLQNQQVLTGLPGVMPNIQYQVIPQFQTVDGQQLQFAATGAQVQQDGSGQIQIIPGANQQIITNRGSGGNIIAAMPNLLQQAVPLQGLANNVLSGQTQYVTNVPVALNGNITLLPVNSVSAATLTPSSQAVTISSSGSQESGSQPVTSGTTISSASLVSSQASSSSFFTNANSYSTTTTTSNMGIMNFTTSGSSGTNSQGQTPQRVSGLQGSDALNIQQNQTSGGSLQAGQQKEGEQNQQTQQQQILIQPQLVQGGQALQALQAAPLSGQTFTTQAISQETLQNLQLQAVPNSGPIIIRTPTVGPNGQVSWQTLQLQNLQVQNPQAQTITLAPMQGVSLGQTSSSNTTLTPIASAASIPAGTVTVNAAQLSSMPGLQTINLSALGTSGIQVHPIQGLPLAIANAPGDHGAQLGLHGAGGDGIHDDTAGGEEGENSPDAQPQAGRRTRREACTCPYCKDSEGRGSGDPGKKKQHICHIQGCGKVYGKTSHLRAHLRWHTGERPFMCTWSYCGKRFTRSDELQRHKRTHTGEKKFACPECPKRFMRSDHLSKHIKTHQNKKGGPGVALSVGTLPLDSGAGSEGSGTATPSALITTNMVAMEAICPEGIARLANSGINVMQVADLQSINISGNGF
Sequence of TFAP2A (P05549 whole entry): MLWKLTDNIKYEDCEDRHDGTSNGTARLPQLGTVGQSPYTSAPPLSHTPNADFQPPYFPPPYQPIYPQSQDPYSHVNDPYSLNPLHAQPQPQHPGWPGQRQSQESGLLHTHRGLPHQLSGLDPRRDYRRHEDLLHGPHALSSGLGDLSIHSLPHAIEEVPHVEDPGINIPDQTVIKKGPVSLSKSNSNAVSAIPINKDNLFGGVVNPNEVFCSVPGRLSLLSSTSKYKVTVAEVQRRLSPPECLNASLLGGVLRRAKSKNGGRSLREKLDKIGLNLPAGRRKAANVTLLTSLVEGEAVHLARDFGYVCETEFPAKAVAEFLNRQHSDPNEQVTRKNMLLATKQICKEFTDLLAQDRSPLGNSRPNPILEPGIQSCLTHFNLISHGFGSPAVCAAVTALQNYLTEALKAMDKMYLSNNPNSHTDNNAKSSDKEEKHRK
Sequence of KLF12 (Q9Y4X4 whole entry): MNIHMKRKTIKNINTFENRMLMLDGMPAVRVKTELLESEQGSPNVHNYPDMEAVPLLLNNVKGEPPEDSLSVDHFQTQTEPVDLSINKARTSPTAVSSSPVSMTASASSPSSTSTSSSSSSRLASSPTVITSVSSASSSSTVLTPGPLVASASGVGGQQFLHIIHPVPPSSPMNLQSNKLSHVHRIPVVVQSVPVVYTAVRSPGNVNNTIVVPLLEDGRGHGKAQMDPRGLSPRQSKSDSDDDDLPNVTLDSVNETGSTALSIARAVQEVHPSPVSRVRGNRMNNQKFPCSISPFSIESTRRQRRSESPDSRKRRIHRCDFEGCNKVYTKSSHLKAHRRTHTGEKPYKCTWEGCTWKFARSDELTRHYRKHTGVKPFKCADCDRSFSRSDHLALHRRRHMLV
Sequence of KLF1 (Q13351 whole entry): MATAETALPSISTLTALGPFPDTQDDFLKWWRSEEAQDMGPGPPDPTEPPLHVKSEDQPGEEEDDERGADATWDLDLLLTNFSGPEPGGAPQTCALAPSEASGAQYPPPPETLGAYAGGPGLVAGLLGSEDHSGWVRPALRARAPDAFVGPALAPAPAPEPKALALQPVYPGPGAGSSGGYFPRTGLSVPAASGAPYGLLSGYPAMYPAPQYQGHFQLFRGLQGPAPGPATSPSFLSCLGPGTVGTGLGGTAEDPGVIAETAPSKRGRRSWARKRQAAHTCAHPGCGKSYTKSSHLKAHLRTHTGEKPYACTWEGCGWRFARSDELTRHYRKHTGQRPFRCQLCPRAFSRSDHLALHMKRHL
Sequence of SP3 (Q02447 whole entry): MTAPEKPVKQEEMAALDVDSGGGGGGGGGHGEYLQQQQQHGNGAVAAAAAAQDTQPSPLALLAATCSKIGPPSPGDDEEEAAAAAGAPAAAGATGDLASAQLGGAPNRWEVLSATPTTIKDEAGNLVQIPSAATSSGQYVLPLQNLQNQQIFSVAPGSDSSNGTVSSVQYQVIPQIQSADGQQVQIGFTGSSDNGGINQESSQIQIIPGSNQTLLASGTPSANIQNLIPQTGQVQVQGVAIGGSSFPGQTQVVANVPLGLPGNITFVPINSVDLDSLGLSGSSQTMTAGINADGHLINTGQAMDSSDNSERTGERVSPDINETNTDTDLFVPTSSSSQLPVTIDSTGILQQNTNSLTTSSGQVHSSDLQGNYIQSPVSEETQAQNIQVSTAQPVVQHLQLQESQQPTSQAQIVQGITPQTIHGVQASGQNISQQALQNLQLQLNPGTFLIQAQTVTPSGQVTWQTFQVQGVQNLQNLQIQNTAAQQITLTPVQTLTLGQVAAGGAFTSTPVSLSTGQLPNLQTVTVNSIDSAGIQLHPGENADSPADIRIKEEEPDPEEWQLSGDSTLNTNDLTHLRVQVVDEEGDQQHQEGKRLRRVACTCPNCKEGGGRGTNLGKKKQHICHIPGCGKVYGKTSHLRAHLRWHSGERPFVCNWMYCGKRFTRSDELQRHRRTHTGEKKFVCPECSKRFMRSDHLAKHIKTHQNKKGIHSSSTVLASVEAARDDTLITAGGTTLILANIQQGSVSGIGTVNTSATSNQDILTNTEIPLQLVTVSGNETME
Sequence of HOXB9 (P17482 whole entry): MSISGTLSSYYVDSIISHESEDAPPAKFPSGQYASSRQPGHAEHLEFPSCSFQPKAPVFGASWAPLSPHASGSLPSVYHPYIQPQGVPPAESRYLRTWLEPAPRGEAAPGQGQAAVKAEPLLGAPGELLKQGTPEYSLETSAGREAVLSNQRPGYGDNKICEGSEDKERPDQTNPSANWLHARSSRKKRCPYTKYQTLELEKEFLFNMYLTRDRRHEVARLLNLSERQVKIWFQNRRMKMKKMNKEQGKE
Sequence of KLF5 (Q13887 whole entry): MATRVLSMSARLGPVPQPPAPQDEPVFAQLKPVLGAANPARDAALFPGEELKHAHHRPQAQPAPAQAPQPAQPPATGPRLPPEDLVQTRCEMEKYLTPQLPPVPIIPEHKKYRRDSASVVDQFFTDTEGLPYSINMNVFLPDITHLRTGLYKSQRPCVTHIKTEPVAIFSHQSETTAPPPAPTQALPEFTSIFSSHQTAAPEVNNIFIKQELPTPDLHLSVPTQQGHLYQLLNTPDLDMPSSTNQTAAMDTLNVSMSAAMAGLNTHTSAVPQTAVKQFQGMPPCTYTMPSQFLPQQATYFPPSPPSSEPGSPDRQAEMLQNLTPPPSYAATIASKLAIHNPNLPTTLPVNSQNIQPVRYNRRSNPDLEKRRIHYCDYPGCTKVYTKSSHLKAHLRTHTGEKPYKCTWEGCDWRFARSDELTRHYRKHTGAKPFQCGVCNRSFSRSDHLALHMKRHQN

B1: BEND3 bait (dsDNA)
DNA 1: GCCGCCGCCCTCCCACGCGCTGCCGGGCC
DNA 2: GGCCCGGCAGCGCGTGGGAGGGCGGCGGC
In the case of B1, the “apparent K (half saturation)” value (KLF12) is reported as 346 nM, the “apparent K (half saturation)” value (MAZ [1]) is reported as 56.4 nM and the “apparent K (half saturation)” value (BEND3) is reported as 166 nM. For the same binder, the “apparent K (half saturation)” value (KLF5) was 227 nM, the “apparent K (half saturation)” value (VEZF1) was 110 nM and the “apparent K (half saturation)” value (SP1) was 289 nM.

B2: CGCG bait (dsDNA)
DNA 1: GCCGCCGCCCTTCTCGCGAGACTGCCGGGCC
DNA 2: GGCCCGGCAGTCTCGCGAGAAGGGCGGCGGC
In the case of B2, the “apparent K (half saturation)” value (KLF1) is reported as 83 nM, the “apparent K (half saturation)” value (MAZ [1]) is reported as 203 nM and the “apparent K (half saturation)” value (BANP) is reported as 6.9 nM and 11.3 nM. For the same binder, the “apparent K (half saturation)” value (HOXB9) was 323 nM, the “apparent K (half saturation)” value (MAZ [2]) was 153 nM and the “apparent K (half saturation)” value (VEZF1) was 333 nM.

B3: SP/KLF negative control bait (dsDNA)
DNA 1: GAGAGAAAATAAAACTGGCT
DNA 2: AGCCAGTTTTATTTTCTCTC
With B3 the “apparent K (half saturation)” value (VEZF1) was greater than 1180 nM.

B4: SP/KLF bait (dsDNA)
DNA 1: GAGAGCCCCGCCCCCTGGCT
DNA 2: AGCCAGGGGGCGGGGCTCTC
B4 was tested, and the “apparent K (half saturation)” value (SP3) was 6.26 nM, the “apparent K (half saturation)” value (TFAP2A) was 162 nM and the “apparent K (half saturation)” value (VEZF1) was 90.4 nM. The “apparent K (half saturation)” value (ZNF148) was 54.2 nM and the “apparent K (half saturation)” value (SP1) was 13.8 nM.
